Test results taken from patent publication US9260728B2, “Terpene synthases from Santalum” (UNIVERSITY OF BRITISH COLUMBIA, priority 2009, dated 2016).

Legend:
[1] = GC-FID determination of reaction products of terpene synthases from FPP with magnesium or manganese; assay type: biochemical
[2] = as above; assay type: biochemical; remark: listed apart in the source
Method: Enzyme assays for all recombinant proteins were done in triplicate using the GC vial method described by O'Maille et al. (Anal. Biochem. 335:[…] (2004). For enzyme assays where only product identification was needed, 10 μg of protein was used in a final volume of 500 μL of reaction buffer (25 mM HEPES, 10% glycerol, 5 mM DTT and 10 mM of either Mg^2+ or Mn^2+. Substrates (FPP and GPP) were added to a final reaction concentration of 100 μM. Vials were overlaid with 500 μL of hexane to trap volatile products and incubated at 30° C. for 2 h. Mixtures were vortexed for 1 min to extract all volatiles and the vials were centrifuged to separate the organic layer.
Product mixtures were analysed by GC-MS in scan mode for product identification. A standard containing the three santalenes and α-trans-bergamotene was prepared by flash chromatography of 2 mL of neat S. album oil over silica and eluted in hexane. A final yield of 25 mg was resuspended in EtOAc and purity was confirmed by GC-FID with conditions described below. All mass spectra were compared to the NIST 2005 library and the literature. Retention indices were determined for all compounds using an n-alkane standard and compared to the literature (R. P. Adams, “Identification of essential oil components by gas chromatography/mass spectrometry,” Allured Publishing Corporation, Carol Stream, Ill. (1995)).
GC-FID was performed on a Shimadzu GC2010 with a 30 m 0.25 mm ID, 0.25 μm film DB-WAX column with He as the carrier gas. Splitless injection (2 μL) was used for all analyses. Conditions were as follows: injector 200° C., detector 250° C., column flow rate 1 mL/min. Oven program: 40° C. for 3 min, then 8° C./min to 180° C., held 5 min, then 10° C./min to 220° C., held 10 min. Needle height was adjusted to only draw from the upper organic layer of all sample vials. GC-MS was performed on a Shimadzu GC2010 with the same DB-WAX column and using He as the carrier gas. Conditions were as follows: injector 200° C., MS interface 240° C., ion source 200° C. Oven program: 40° C. for 3 min, then 8° C./min to 180° C., held 5 min, then 10° C./min to 220° C., held 10 min. Solvent cut time was set to 5 min. For product identification, total ion monitoring was used, scanning from m/z 45 to m/z 300. For kinetic assays, single ion monitoring of the sesquiterpene base ions m/z 91, 93 and 94 were used. Likewise monoterpene base ions (m/z 69, 71 and 93) were monitored. An internal standard (isobutyl benzene, 30 μM) was added to the hexane used to overlay each reaction. Detector response factors were calculated based on the santalene standard prepared earlier and used to determine the product concentrations for kinetic analysis.

B1: SspiSSy: santalene synthase from Santalum spicatum, gene SEQ ID NO:5, protein SEQ ID NO:6 (protein, listed as Santalum spicatum)
chain: MDSSTATATTAPFIDHTDHVNLKIDNDSSESRRMGNYKPSIWNYDFLQSLAIHHNIVEEKHLKLAEKLKGQVMSMFGAPMEPLAKLELVDVVQRLGLNHQFETEIKEALFSVYKDGSNGWWFGHLHATSLRFRLLRQCGLFIPQDVFKTFQSKTDEFDMKLCDNIKGLLSLYEASFLGWKGENILDEAKAFATKYLKNAWENISQKWLAKRVKHALALPLHWRVPRIEARWFIEAYEQEENMNPTLLKLAKLDFNMVQSIHQKEIGELARWWVTTGLDKLAFARNNLLQSYMWSCAIASDPKFKLARETIVEIGSVLTVVDDAYDVYGSMDELDHYTYSVERWSCVEIDKLPNTLKLIFMSMFNKTNEVGLRVQHERGYNGIPTFIKAWVEQCKAYQKEARWYHGGHTPPLEEYSLNGLVSIGFPLLLITGYIAIAENEAALDKVHPLPDLLHYSSLLSRLINDMGTSPDEMARGDNLKSIHCYMNETGASEEVAREHIKGIIEENWKILNQCCFDQSQFQEPFITFNLNSVRGSHFFYEFGDGFGVTDSWTKVDMKSVLIDPIPLGEE
modifications: SspiSSy Protein
[1]
  Relative % composition in oil produced by enzyme: epi-β-santalol: 4.2%
  Relative % composition in oil produced by enzyme: α-santalol: 47.3%
[2]; FPP Mg, mean
  E-β-farnesene among reaction products (GC-FID): 2.2
  Z-β-farnesene among reaction products (GC-FID): 0.7
  epi-β-santalene among reaction products (GC-FID): 4.2
  α-E-bergamotene among reaction products (GC-FID): 19.2
  α-santalene among reaction products (GC-FID): 47.3
  β-santalene among reaction products (GC-FID): 26.3
[2]; FPP Mg, replicate 1
  E-β-farnesene among reaction products (GC-FID): 2.5
  Z-β-farnesene among reaction products (GC-FID): 0.7
  epi-β-santalene among reaction products (GC-FID): 4.6
  α-E-bergamotene among reaction products (GC-FID): 19.6
  α-santalene among reaction products (GC-FID): 46.3
  β-santalene among reaction products (GC-FID): 26.4
[2]; FPP Mg, replicate 2
  E-β-farnesene among reaction products (GC-FID): 2.2
  Z-β-farnesene among reaction products (GC-FID): 0.6
  epi-β-santalene among reaction products (GC-FID): 4.2
  α-E-bergamotene among reaction products (GC-FID): 19.2
  α-santalene among reaction products (GC-FID): 47.4
  β-santalene among reaction products (GC-FID): 26.4
[2]; FPP Mg, replicate 3
  E-β-farnesene among reaction products (GC-FID): 2.0
  Z-β-farnesene among reaction products (GC-FID): 0.8
  epi-β-santalene among reaction products (GC-FID): 4.0
  α-E-bergamotene among reaction products (GC-FID): 18.9
  α-santalene among reaction products (GC-FID): 48.1
  β-santalene among reaction products (GC-FID): 26.3
[2]; FPP Mn, mean
  E-β-farnesene among reaction products (GC-FID): 8.2
  Z-β-farnesene among reaction products (GC-FID): 1.0
  epi-β-santalene among reaction products (GC-FID): 1.3
  α-E-bergamotene among reaction products (GC-FID): 78.9
  α-santalene among reaction products (GC-FID): 7.3
  β-santalene among reaction products (GC-FID): 3.4
[2]; FPP Mn, replicate 1
  E-β-farnesene among reaction products (GC-FID): 8.1
  Z-β-farnesene among reaction products (GC-FID): 1.0
  epi-β-santalene among reaction products (GC-FID): 1.4
  α-E-bergamotene among reaction products (GC-FID): 79.0
  α-santalene among reaction products (GC-FID): 7.2
  β-santalene among reaction products (GC-FID): 3.3
[2]; FPP Mn, replicate 2
  E-β-farnesene among reaction products (GC-FID): 8.0
  Z-β-farnesene among reaction products (GC-FID): 1.0
  epi-β-santalene among reaction products (GC-FID): 1.7
  α-E-bergamotene among reaction products (GC-FID): 78.6
  α-santalene among reaction products (GC-FID): 7.4
  β-santalene among reaction products (GC-FID): 3.4
[2]; FPP Mn, replicate 3
  E-β-farnesene among reaction products (GC-FID): 8.4
  Z-β-farnesene among reaction products (GC-FID): 1.0
  epi-β-santalene among reaction products (GC-FID): 0.7
  α-E-bergamotene among reaction products (GC-FID): 79.1
  α-santalene among reaction products (GC-FID): 7.3
  β-santalene among reaction products (GC-FID): 3.5
[2]; GC-FID
  Relative % composition in oil produced by enzyme: E-α-bergamotol: 19.2%
  Relative % composition in oil produced by enzyme: β-santalol: 26.3%
